Data taken from doi:10.1101/2025.08.29.673170.

Target: F-actin (pre-polymerized actin filaments) (UniProt P68135)
Test: co-sedimentation

| Substance | duty ratio KABD = kon/(kon + koff) | Kd [µM] |
| --- | --- | --- |
| 10xHis-SNAP-EzrABD (domain or fragment) | 0.14 |  |
| 10xHis-SNAP-EzrABD K577A (domain or fragment) | 0.1 | 10 |
| 10xHis-SNAP-UtrABD (from UniProt P46939 1-261) (domain or fragment) | 0.71 | 0.4 |
